According to US20250027068:

Target: pooled human IgG

| Protein | Enzyme Activity Endpoint Assay (purified): Fab′2 [ng/µL] | Enzyme Activity Endpoint Assay (purified): Fc [ng/µL] | Enzyme Activity Endpoint Assay (purified): IgG [ng/µL] | Enzyme Activity Endpoint Assay (purified): scIgG [ng/µL] |
| --- | --- | --- | --- | --- |
| PRT-655 (protein) MQITSVWTKGVTPLTPEQFRYNNEDVIHAPYLAHQGWYDITKAFDGKDNLLCGAATAGNMLHWWFDQNKTEIEAYLSKHPEKQKIIFNNQELFDLKAAIDTKDSQTNSQLFNYFRDKAFPNLSARQLGVMPDLVLDMFINGYYLNVFKTQSTDVNRPYQDKDKRGGIFDAVFTRGDQTTLLTARHDLKNKGLNDISTIIKQELTEGRALALSHKTGNGGSSHVINLWGADFNAEGNLEAIYVTDSDANASIGMKKYFVGINAHGHVAISAKKIEGEDVGAQVLGLFTLSSGKDIWQKLSLEHHHHHH | 471 | 0 | 1380 | 15 |
| PRT-63 (protein) MANQEIRYSEVTPYHVTSVWTKGVTPPANFTQGEDVFHAPYVANQGWYDITKTFNGKDDLLCGAATAGNMLHWWFDQNKEQIKRYLKEHPEKQKINFNGEQMFDVKEAIDTKNHQLDSKLFEYFKEKAFPYLSTKHLGVFPDHVLDMFINGYRLSLTNHGPTPVKEGSKDPRGGIFDDVFTRGDQSKLLTSRHDFKEKNLKEISDLIKKELTEGKALGLSHTYANVRINHVINLWGADFDSNGNLKAIYVTDSDSNASIGMKKYFVGVNSAGKVAISAKEIKEDNIGAQVLGLFTLSTGQDSWNQTN | 44 | 120 | 13 | 19 |
| PRT-64 (protein) MANQEIRYSEVTPYHVTSVWTKGVTPPANFTQGEDVFHAPYVANQGWYDITKTFNGKDDLLCGAATAGNMLHWWFDQNKDQIDRYLEEHPEKQKINFNGEQMFDVKEAIDTKNHQLDSKLFEYFKEKAFPYLSTKHLGVFPDHVIDMFINGYRLSLTNHGPTPVKEGSKDPRGGIFDAVFTRGDQSKLLTSRHDFKEKNLKEISDLIKKELTEGKALGLSHTYANVRINHVINLWGADFDSNGNLKAIYVTDSDSNASIGMKKYFVGVNSAGKVAISAKEIKEDNIGAQVLGLFTLSTGQDSWNQTN | 50 | 123 | 16 | 17 |
| PRT-572 (protein) MANQEIRYSEATPSHITSVWTKGVTPPTQFIQNEDVLHAPYIANQGWYDITKTFNGKDDLLCGAATAGNMLHWWFDQNKEQIENYLKKHPEKQKINFNGEQMFDVKEAIDTKDSQTDSALFSYFKDKAFPYLSTKHLGVFPDHVIDMFINGYRLSLTNHGPTPVKEQTKDPRGGIFDAVFTRGDQSKLLTSRHDFKEKTLNEISQLIKQELTEGKALGLSHTYANVRINHVINLWGADFNAEGNLEAIYVTDSDSNASIGMKKYYVGVNSAGKVAISAKEIEGDNIGAQVLGLFTLSTGQDIWQQTNLEHHHHHH | 936 | 478 | 0 | 0 |
| PRT-622 (protein) MQITSVWTKGVTPLTPEQFRYNNEDVIHAPYLAHQGWYDITKAFDGKDNLLCGAATAGNMLHWWFDQNKTEIEAYLSKHPEKQKIIFNNQELFDLKAAIDTKDSQTNSQLFNYFRDKAFPNLSARQLGVMPDLVLDMFINGYYLNVFKTQSTDVNRPYQDKDKRGGIFDAVFTRGDQTTLLTARHDLKNKTLKEISDIIKQELQSGRALALSHTYANVSISHVINLWGADFNSEGNLIAIYVTDSDANASIGMKKYFVGINAHGHVAISAKKIEGENIGAQVLGLFTLSSGKDIWQKLSLEHHHHHH | 823 | 423 | 0 | 0 |
| PRT-627 (protein) MQITSVWTKGVTPLTPEQFRYNNEDVIHAPYLAHQGWYDITKAFDGKDNLLCGAATAGNMLHWWFDQNKEEIEAYLKKYGETQKIIFNNQELFDLKAAIDTKDSQTNSQLFNYFRDKAFPNLSARQLGVMPDLVLDMFINGYYLNVFKTQSTDVNRPYQDKDKRGGIFDAVFTRGDQTTLLTARHDLKNKGLNDISTIIKQELTEGRALALSHTYANVSISHVINLWGADFNAEGNLEAIYVTDSDANASIGMKKYFVGINAHGHVAISAKKIEGENIGAQVLGLFTLSSGKDIWQKLSLEHHHHHH | 767 | 415 | 124 | 187 |
| PRT-606 (protein) MQITSVWTKGVTPLTPEQFRYNNEDVIHAPYLAHQGWYDITKAFDGKDNLLCGAATAGNMLHWWFDQNKTEIEAYLSKYPDKQKIIFNNQELFDLKAAIDTKDSQTNSQLFNYFRDKAFPNLSARQLGVMPDLVLDMFINGYYLNVFKTQSTDVNRPYQDKDKRGGIFDAVFTRGDQTTLLTARHDLKNKGLNDISTIIKQELTEGRALALSHTYANVSISHVINLWGADFNAEGNLEAIYVTDSDANASIGMKKYFVGINAHGHVAISAKKIEGENIGAQVLGLFTLSSGKEIWQKLSLEHHHHHH | 737 | 406 | 0 | 0 |
| PRT-612 (protein) MQITSVWTKGVTPLTPEQFRYNNEDVIHAPYLAHQGWYDITKAFDGKDNLLCGAATAGNMLHWWFDQNKTEIEAYLSKHPEKQKIIFNNQELFDLRAAINSKDSQTNSQLFNYFRDKAFPNLSARQLGVMPDLVLDMFINGYYLNVFKTQSTDVNRPYQDKDKRGGIFDAVFTRGDQTTLLTARHDLKNKGLNDISTIIKQELTEGRALALSHTYANVSISHVINLWGADFNAEGNLEAIYVTDSDANASIGMKKYFVGINAHGHVAISAKKIEGENIGAQVLGLFTLSSGKDIWQKLSLEHHHHHH | 986 | 533 | 0 | 0 |
| PRT-678 (protein) MQITTVWTKGVTPLTPEQFRYNNEEVIHAPYKAGQGWYDITKVFDGKDNLLCGAATAGNMLHWWFDQNKTEIEAYLSKHPEKQKIIFNNQELFDLKRAIDDKDSQTNSQLFNYFRDKAFPNLSARQLGVMPDLVLDMFINGYYLNVFKTQSTDVNRPYQDPDKRGGIFDDVFGKGDQTTLLTARHDLKNLGLEDISTIIKQELRNGRALALSHTYANVSISHVINLWGADFNAEGNLSAIYVTDSDANNSIGMKKYKVGYNAHGRVAISAKKIEGENIGAQVLGLFTLSSGKDIWQKLSLEHHHHHH | 56 | 0 | 39 | 0 |
| PRT-550 (protein) MANQEIRYSEETPKTITSIWTKGVTPPTDFIKNEDVLHAPYIANQGWYDITKTFNGKDDLLCGAATAGNMLHWWFDQNKEEIENYLKKHPEKQKINFNGEQMFDVKEAIDTKDSQTDSKLFEYFKDKAFPYLSTKHLGVFPDHVIDMFINGYRLSLTNHGPTPVKRGTKDPRGGIFDAVFTRGDQSKLLTARHDFKEKTLNEISDLIKQELTEGKALGLSHTYANVRINHVINLWGADFNSEGNLEAIYVTDSDSNASIGMKKYYVGVNAAGKVAISAKEIEGDNIGAQVLGLFTLSTGQDIWNQTNLEHHHHHH | 891 | 389 | 0 | 0 |
